Experimental data: US20070128627A1 (US Dept. of Health and Human Services, published 2007)

Columns and labels:
VP16/GR = molecular target: T1, VP16/GR (UniProt P06536 1-795); test: mammalian two-hybrid ±1 µM Dex (FIG. 6B)
T1 construct: Assayed with and without 1 µM Dex
T1 sequence: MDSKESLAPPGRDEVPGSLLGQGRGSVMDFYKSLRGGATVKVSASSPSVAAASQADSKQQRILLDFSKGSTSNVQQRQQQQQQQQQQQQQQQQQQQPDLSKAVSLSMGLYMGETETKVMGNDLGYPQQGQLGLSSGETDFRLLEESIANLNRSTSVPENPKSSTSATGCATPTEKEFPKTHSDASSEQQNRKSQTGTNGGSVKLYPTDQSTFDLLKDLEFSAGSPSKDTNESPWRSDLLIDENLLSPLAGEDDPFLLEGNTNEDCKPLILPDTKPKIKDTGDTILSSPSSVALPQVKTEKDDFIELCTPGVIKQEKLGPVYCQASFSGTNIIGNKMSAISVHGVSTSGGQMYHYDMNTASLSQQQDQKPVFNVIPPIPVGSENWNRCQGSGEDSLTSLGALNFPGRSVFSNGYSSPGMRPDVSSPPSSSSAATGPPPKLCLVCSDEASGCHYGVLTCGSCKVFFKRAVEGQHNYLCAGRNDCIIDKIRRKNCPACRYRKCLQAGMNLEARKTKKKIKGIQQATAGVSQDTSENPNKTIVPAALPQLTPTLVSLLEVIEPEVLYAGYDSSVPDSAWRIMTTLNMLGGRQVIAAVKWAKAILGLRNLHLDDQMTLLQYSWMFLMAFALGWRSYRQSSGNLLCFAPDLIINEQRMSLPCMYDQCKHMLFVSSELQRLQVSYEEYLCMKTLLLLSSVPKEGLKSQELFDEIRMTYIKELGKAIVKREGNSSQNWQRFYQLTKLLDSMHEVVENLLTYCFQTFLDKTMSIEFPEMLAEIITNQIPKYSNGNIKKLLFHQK

VP16/TIF2.4 = molecular target: T2, VP16/TIF2.4 (human, UniProt Q15596 624-1010); test: mammalian two-hybrid in CV-1 cells, relative luciferase activity (FIG. 6A)
T2 construct: Only the TIF2.4 fragment is present; The text gives no limits for it, so the whole TIF2 entry is named
T2 sequence: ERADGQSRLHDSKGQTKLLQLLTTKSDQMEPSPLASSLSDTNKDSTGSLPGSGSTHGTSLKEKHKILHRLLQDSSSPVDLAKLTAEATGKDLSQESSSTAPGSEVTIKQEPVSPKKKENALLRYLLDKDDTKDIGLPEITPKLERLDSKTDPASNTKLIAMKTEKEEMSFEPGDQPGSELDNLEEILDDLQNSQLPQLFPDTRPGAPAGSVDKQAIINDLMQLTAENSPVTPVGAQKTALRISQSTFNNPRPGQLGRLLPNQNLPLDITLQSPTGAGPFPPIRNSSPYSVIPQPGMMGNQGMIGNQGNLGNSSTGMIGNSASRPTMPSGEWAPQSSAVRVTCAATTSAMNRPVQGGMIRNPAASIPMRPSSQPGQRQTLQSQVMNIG
Excerpt: Triplicate samples of CV-1 cells were transiently transfected with VP16 or VP16/TIF2.4 in FIG. 6A experiments. […] After determining the relative luciferase activities as described in FIG. 2B and 2C, the average values±S.E.M. from 2-5 experiments were plotted.

B1: GAL/STAMP(623-834) (other)
chain: MKLLSSIEQACDICRLKKLKCSKEKPKCAKCLKNNWECRYSPKTKRSPLTRAHLTEVESRLERLEQLFLLIFPREDLDMILKMDSLQDIKALLTGLFVQDNVNKDAVTDRLASVETDMPLTLRQHRISATSSSEESSNKGQRQLTVSENTPKENSMKVREWNNKGGHCCKLETQELEPKFNLMQILQDNGNLSKMQARIAFSAYLQHVQIRLMKDSGGQTFSASWAAKEDEQMELVVRFLKRASNNLQHSLRMVLPSRRLALLERRRILAHQLGDFIIVYNKETEQMAEKKSKKKVEEEEEDGVNMENFQEFIRQASEAELEEVLTFYTQKNKSASVFLGTHSKISKNNNNYSDSGAKG
notes: domain: GAL-DBD; Expressed in CV-1 cells for the mammalian two-hybrid assay; also called Gal/6-6CL1
binding result (VP16/GR): no binding
average fold increase above the VP16 control (VP16/TIF2.4): 11 fold
